Measurements: paper PMC11721465

Columns and labels:
[1] = biological target: TREM2 (19–134) WT, biotinylated (human) (UniProt Q9NZC2); test: BLI; sequential competition: biotinylated TREM2 WT on SA biosensors dipped into a first ligand or no ligand, then buffer, then a second ligand; binding of the second ligand = response at end minus beginning of Association 2
[2] = biological target: TREM2 (19–134) F74D, biotinylated (human) (UniProt Q9NZC2); test: BLI; biotinylated TREM2 WT or variant immobilised on SA biosensors; C1q 62.5–1000 nM; PBS with 0.1% BSA and 0.005% Tween-20; 1:1 kinetic fits
[3] = biological target: TREM2 (19–134) WT, biotinylated (human) (UniProt Q9NZC2); test: as above
[4] = biological target: TREM2 (19–134) M41D, biotinylated (human) (UniProt Q9NZC2); test: as above
[5] = biological target: TREM2 (19–134) T85D, biotinylated (human) (UniProt Q9NZC2); test: as above
[6] = biological target: TREM2 (19–134) L75D, biotinylated (human) (UniProt Q9NZC2); test: as above
[7] = biological target: TREM2 (19–134) R76D, biotinylated (human) (UniProt Q9NZC2); test: as above
[8] = biological target: TREM2 (19–134) L71D, biotinylated (human) (UniProt Q9NZC2); test: as above
[9] = biological target: TREM2 (19–134) R62H, biotinylated (human) (UniProt Q9NZC2); test: as above
[10] = biological target: TREM2 (19–134) R122D/K123D, biotinylated (human) (UniProt Q9NZC2); test: as above
[11] = biological target: TREM2 (19–134) R47H, biotinylated (human) (UniProt Q9NZC2); test: as above
[12] = biological target: TREM2 (19–134) D87N, biotinylated (human) (UniProt Q9NZC2); test: BLI; biotinylated TREM2 WT or variant immobilised on streptavidin (SA) biosensors; apoE in solution (apoE4 0.012–50 µM); PBS with 0.1% BSA and 0.005% Tween-20; double-reference subtraction; steady-state analysis
C1q (Homo sapiens) = C1q (Homo sapiens) (UniProt P02745); conditions: cited from earlier work
Chain of C1q (Homo sapiens) (P02745 23-245, chain 1 of 3): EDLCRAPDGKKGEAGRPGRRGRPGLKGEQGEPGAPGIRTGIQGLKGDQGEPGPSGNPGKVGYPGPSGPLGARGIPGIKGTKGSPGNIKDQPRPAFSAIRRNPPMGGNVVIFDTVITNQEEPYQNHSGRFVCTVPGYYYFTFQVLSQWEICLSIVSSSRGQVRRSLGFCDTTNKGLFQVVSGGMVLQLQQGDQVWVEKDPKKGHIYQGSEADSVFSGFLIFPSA
Chain of C1q (Homo sapiens) (P02746 28-253, chain 2 of 3, further chain): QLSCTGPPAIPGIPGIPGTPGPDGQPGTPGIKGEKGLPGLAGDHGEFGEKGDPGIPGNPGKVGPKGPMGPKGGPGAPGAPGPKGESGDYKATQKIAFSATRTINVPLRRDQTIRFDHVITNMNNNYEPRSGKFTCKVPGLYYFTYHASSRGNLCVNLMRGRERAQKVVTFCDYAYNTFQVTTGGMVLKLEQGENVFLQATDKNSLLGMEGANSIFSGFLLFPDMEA
Chain of C1q (Homo sapiens) (P02747 29-245, chain 3 of 3, further chain): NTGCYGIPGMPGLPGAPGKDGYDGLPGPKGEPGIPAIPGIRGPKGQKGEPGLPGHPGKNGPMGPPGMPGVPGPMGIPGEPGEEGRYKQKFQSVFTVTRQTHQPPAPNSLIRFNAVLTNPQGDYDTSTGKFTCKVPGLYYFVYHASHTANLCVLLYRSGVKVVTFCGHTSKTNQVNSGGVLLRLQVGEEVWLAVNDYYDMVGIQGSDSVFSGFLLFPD

Chain of TREM2 (19–134) WT, biotinylated (human) (Q9NZC2 19-134): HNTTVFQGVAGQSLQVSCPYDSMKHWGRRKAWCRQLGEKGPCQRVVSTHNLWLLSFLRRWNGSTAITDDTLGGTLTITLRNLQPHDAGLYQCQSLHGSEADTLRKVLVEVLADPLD
Chain of TREM2 (19–134) R47H, biotinylated (human) (Q9NZC2 19-134 R47H): as the sequence (Q9NZC2 19-134) above, with R29H counted along it
Chain of TREM2 (19–134) D87N, biotinylated (human) (Q9NZC2 19-134 D87N): as the sequence (Q9NZC2 19-134) above, with D69N counted along it
Chain of TREM2 (Q9NZC2 19-174): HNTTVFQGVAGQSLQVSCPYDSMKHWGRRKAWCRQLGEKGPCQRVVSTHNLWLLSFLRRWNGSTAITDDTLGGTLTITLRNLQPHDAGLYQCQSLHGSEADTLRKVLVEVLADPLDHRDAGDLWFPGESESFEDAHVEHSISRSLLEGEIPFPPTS
Chain of TREM2 (19–134) R62H, biotinylated (human) (Q9NZC2 19-134 R62H): as the sequence (Q9NZC2 19-134) above, with R44H counted along it
Chain of TREM2 (19–134) M41D, biotinylated (human) (Q9NZC2 19-134 M41D): as the sequence (Q9NZC2 19-134) above, with M23D counted along it
Chain of TREM2 (19–134) F74D, biotinylated (human) (Q9NZC2 19-134 F74D): as the sequence (Q9NZC2 19-134) above, with F56D counted along it
Chain of TREM2 (19–134) T85D, biotinylated (human) (Q9NZC2 19-134 T85D): as the sequence (Q9NZC2 19-134) above, with T67D counted along it
Chain of TREM2 (19–134) L75D, biotinylated (human) (Q9NZC2 19-134 L75D): as the sequence (Q9NZC2 19-134) above, with L57D counted along it
Chain of TREM2 (19–134) L71D, biotinylated (human) (Q9NZC2 19-134 L71D): as the sequence (Q9NZC2 19-134) above, with L53D counted along it
Chain of TREM2 (19–134) R76D, biotinylated (human) (Q9NZC2 19-134 R76D): as the sequence (Q9NZC2 19-134) above, with R58D counted along it
Chain of TREM2 (19–134) R122D/K123D, biotinylated (human) (Q9NZC2 19-134 R122D/K123D): as the sequence (Q9NZC2 19-134) above, with R104D, K105D counted along it

Substance: Complement C1q (complex)
- percent decrease of apoE4 (500 nM) binding to TREM2 after pre-binding 1000 nM C1q [1]: 3%
- percent inhibition of oAβ42 (500 nM) binding to TREM2 after pre-binding 1000 nM C1q [1]: 22%
- Kd [2]: 0.11 µM
- Kd [3]: 0.65 µM
- Kd [4]: 2.54 µM
- Kd [5]: 0.11 µM
- Kd [6]: 0.11 µM
- Kd [7]: 13.8 µM
- Kd [8]: 0.058 µM
- Kd [9]: 1.66 µM
- Kd [10]: 0.82 µM
- Kd [11]: 0.18 µM

Substance: apolipoprotein E2 (from UniProt P02649 19-317) (ligand)
- Kd [12]: 0.052 µM

Substance: TREM2 (from UniProt Q9NZC2)
- Kd (C1q (Homo sapiens)): 0.00735 µM

Substance: apolipoprotein E4 (from UniProt P02649 19-317) (ligand)
- percent reduction of oAβ42 (500 nM) binding to TREM2 after pre-binding 10 µM apoE4 [1]: 67%
